Laboratory results published in patent US20250034536, “POLYNUCLEOTIDES ENCODING ENGINEERED MEGANUCLEASES HAVING SPECIFICITY FOR RECOGNITION SEQUENCES IN THE DYSTROPHIN GENE” (Precision BioSciences, Inc., published 2025).

T1: DMD 37-38x.79 (synthetic construct)
T1 chain: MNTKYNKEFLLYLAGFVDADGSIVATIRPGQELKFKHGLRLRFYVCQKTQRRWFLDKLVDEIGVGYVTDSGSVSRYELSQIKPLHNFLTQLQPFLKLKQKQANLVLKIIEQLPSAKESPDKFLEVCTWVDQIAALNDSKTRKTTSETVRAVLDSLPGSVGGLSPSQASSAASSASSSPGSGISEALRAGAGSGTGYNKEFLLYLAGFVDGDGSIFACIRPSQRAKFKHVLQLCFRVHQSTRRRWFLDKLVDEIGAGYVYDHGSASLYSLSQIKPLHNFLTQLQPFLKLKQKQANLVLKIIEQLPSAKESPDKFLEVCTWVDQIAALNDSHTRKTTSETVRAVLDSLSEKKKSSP

T2: DMD 37-38x.15 (synthetic construct)
T2 chain: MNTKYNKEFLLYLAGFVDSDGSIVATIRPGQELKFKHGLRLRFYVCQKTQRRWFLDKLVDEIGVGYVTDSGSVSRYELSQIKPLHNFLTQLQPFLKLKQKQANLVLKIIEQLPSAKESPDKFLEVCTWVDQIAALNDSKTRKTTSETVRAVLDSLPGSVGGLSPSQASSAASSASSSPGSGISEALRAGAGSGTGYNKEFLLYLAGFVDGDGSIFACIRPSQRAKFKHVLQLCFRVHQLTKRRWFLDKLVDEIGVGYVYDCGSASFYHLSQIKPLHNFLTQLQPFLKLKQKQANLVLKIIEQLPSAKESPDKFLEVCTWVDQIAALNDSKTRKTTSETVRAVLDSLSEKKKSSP

T3: DMD 37-38x.66 (synthetic construct)
T3 chain: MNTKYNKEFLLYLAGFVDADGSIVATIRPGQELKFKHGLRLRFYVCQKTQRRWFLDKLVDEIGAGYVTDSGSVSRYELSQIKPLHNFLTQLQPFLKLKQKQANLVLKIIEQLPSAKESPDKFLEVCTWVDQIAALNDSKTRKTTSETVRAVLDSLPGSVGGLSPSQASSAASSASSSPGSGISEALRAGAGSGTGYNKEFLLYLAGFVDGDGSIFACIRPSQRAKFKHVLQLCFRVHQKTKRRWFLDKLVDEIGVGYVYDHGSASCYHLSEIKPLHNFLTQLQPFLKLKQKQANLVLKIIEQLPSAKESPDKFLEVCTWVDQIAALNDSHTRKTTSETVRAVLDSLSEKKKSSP

T4: DMD 35-36x.63 (synthetic construct)
T4 chain: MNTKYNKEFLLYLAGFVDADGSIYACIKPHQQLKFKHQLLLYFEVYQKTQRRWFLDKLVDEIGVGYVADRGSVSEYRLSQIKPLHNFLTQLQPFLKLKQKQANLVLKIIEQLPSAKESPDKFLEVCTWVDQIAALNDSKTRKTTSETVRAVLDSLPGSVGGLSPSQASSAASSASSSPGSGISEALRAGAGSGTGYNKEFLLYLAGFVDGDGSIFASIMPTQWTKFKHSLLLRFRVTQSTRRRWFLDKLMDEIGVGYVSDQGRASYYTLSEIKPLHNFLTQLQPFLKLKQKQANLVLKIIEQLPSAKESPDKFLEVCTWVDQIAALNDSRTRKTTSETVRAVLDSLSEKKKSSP

T5: DMD 35-36x.81 (synthetic construct)
T5 chain: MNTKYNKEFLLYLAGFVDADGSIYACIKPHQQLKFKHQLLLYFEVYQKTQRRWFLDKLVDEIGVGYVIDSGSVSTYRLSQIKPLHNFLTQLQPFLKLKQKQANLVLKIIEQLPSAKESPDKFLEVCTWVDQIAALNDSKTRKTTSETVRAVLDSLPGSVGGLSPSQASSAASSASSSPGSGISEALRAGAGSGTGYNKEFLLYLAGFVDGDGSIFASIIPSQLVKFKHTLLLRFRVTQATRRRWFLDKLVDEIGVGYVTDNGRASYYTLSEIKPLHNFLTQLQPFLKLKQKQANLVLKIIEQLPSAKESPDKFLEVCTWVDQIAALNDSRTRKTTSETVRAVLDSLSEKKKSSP

B1: DMD 37-38 recognition sequence (dsDNA)
DNA 1: CTGGCCGAAGTATAGGAATATG
DNA 2: CATATTCCTATACTTCGGCCAG
B2: DMD 35-36 recognition sequence (dsDNA)
DNA 1: CTACATGGTGTATCTGACTAAG
DNA 2: CTTAGTCAGATACACCATGTAG

How the values were obtained:
Experiment in all cases: cell_activity; MRC5 cells, 2 ng mRNA; also active in CHO GFP reporter
Conditions in all cases: tags: N-terminal SV40 NLS
DMD 37-38x.79 = molecular target: T1, DMD 37-38x.79
Description: (§1) In these experiments, 1e6 MRC5 cells were electroporated with 2 ng or 100 ng mRNA encoding DMD meganucleases (DMD 19-20x.13, DMD 19-20x.87, DMD 29-30x.18, DMD 29-30x.40, DMD 35-36x.63, DMD 35-36x.81, DMD 37-38x.15, DMD 37-38x.66, or DMD 37-38x.79), or GFP using the Lonza Amaxa 4D system. Cells were collected at two days post electroporation for gDNA preparation and evaluated for transfection efficiency using a Beckman Coulter CytoFlex S cytometer. Transfection efficiency exceeded 90%. Additional time points were collected at five- and eight-days post electroporation for gDNA extractions. gDNA was prepared using the Macherey Nagel NucleoSpin Blood QuickPure kit.

DMD 37-38x.15 = molecular target: T2, DMD 37-38x.15
Description: as §1

DMD 37-38x.66 = molecular target: T3, DMD 37-38x.66
Description: as §1

DMD 35-36x.63 = molecular target: T4, DMD 35-36x.63
Description: as §1

DMD 35-36x.81 = molecular target: T5, DMD 35-36x.81
Description: as §1

Binder | activity (DMD 37-38x.79) [% indel] | activity (DMD 37-38x.15) [% indel] | activity (DMD 37-38x.66) [% indel] | activity (DMD 35-36x.63) [% indel] | activity (DMD 35-36x.81) [% indel]
B1 | > 30 | > 30 | > 30 |  | 
B2 |  |  |  | > 30 | > 30
